Data published in paper PMC10761869 (Nature Communications, 2024).
Each block holds one molecule with its values, some of them ahead of it.

Experiments:
[1] = target: (Sgt2-C258)XL2, BMH-crosslinked Sgt2-C258 dimer (UniProt Q12118); assay: cross-linking; Bos1^Bpa translated with 35S-methionine in S30 lysate in the presence of Sgt2 or Sgt2-C258; complexes purified via His6 on Sgt2, treated with 1 mM BMH; UV crosslinking, SDS-PAGE, autoradiography; time courses after adding 15–20 µM CaM (1 mM Ca(OAc)2) or 0.75 µM Get3 with 2 mM ATP, with or without 0.75 µM Get4/5
[2] = target: His6-Sgt2 (wildtype Sgt2) (UniProt Q12118); assay: as above
[3] = target: His6-Sgt2-G258C, not crosslinked (UniProt Q12118); assay: cross-linking; purified Sgt2-C258-TA^Bpa complex incubated with 1 mM BMH at RT, quenched with 10 mM DTT; anti-His immunoblot
[4] = target: His6-Sgt2-G258C, not crosslinked (UniProt Q12118); assay: cross-linking; intradimer crosslink of Sgt2 single cysteine variants with the thiol-specific homo-bifunctional crosslinker bismaleimidohexane (BMH)
[5] = target: Ssa1^TMR, TMR-labeled Ssa1(D430C) (yeast) (UniProt P10591); assay: FRET or BRET; 20 nM Bos1^BFL with 500 nM Ssa1^TMR, with or without 500 nM Ydj1, 5 min; excitation 485 nm; chased with cpSRP43 or a five-fold excess of unlabeled Ssa1
[6] = target: Sgt2^BFL (His6-Sgt2-LPATGG labelled with BODIPY-FL at the C-terminus); assay: FRET or BRET; 50–150 nM purified Sgt2^BFL-TA^CM complex in GET buffer chased with 14–28 µM cpSRP43; recovery of donor fluorescence (excitation 360 nm, emission 460 nm); TA dissociation
[7] = target: Sgt2^BFL (His6-Sgt2-LPATGG labelled with BODIPY-FL at the C-terminus); assay: as above; remark: listed apart in the source
[8] = target: Sgt2^BFL (His6-Sgt2-LPATGG labelled with BODIPY-FL at the C-terminus); assay: FRET or BRET; 50–150 nM purified Sgt2^BFL-Bos1^CM complex in GET buffer chased with 2.5–30 µM CaM or with unlabeled Sgt2; recovery of donor fluorescence; intrinsic koff by extrapolation of the CaM concentration dependence to the Y-axis
[9] = target: T1, His6-Sgt2 (wildtype Sgt2), Q12118
T1 chain: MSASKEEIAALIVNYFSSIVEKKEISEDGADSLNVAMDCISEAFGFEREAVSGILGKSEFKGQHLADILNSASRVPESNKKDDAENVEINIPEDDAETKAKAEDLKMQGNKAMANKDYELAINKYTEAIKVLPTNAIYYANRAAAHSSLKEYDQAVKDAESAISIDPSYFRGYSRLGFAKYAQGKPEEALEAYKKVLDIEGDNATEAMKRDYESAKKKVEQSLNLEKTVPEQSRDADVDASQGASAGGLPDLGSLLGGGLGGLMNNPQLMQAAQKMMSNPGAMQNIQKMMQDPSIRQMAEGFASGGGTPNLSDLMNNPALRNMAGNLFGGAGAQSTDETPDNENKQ

[10] = target: Bos1^Bpa, in vitro translated (Strep3-tagged, 35S-methionine); assay: pull-down + cross-linking; Bos1^Bpa translated in S30 extract in the presence of 2 µM His6-Sgt2 or Sgt2ΔN; pulldown on the strep3-tagged TA; UV crosslinking, autoradiography
Ssa1 (tagless) = target: T2, Ssa1 (tagless) (yeast, UniProt P10591 1-642); assay: pull-down; TA (0.3 µM) loaded on 3 µM Ssa1 with 2 mM ATP, with or without 3 µM Ydj1, then 0.6 µM His6-Sgt2; Talon resin, GET buffer (150 mM KOAc) with 5 mM imidazole wash; settings: both partners purified
T2 construct: Ssa1, the major cytosolic Hsp70 in yeast; also called Hsp70; unlabeled Ssa1; source: recombinant His6-SUMO fusion, purified (Ni Sepharose, SUMO protease, MonoQ)
T2 sequence (P10591 whole entry, the tested form may be a part): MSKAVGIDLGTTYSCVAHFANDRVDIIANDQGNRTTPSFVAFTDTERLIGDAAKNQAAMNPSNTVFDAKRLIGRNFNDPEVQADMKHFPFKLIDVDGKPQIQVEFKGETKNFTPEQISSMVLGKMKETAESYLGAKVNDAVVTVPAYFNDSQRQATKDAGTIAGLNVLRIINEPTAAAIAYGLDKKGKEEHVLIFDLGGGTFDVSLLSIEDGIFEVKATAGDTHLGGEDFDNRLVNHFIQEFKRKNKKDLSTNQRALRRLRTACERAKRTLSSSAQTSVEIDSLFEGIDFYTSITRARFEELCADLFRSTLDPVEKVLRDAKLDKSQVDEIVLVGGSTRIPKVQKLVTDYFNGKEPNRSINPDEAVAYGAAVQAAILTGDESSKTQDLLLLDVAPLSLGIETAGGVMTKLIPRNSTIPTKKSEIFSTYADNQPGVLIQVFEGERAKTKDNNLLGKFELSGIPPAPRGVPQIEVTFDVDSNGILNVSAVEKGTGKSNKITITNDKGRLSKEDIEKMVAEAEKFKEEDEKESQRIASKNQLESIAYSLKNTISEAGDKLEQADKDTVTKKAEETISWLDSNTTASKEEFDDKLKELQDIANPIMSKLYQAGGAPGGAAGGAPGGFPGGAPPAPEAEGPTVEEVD

Ssa1 = target: T3, Ssa1 (yeast, UniProt P10591 1-642); assay: pull-down; 0.6 µM His6-Sgt2 added for 1 min to a preformed Ssa1-TA complex (0.3 µM TA, 3 µM Ssa1, 2 mM ATP, with or without 3 µM Ydj1) in GET buffer; captured on Talon resin at 4 °C, washed with GET buffer + 5 mM imidazole, eluted with 300 mM imidazole; silver stain and anti-Strep western blot; settings: both partners purified
T3 construct: Ssa1, the major cytosolic Hsp70 of yeast; also called Hsp70; source: recombinant His6-SUMO fusion, purified (Ni Sepharose, SUMO protease, MonoQ)
T3 sequence (P10591 whole entry, the tested form may be a part): as above

- rate constant of loss of the TA crosslink to (Sgt2-C258)XL2 on transfer to Get3 with Get4/5 [1]: 3.5 min⁻¹
- apparent rate constant of TA loss from Sgt2 to CaM (20 µM CaM) [2]: 0.78 min⁻¹
Molecule: Bos1^Bpa, in vitro translated (Strep3-tagged, 35S-methionine)

- percent crosslinked by BMH (intradimer, in the complex with TA) [3]: 50%
- BMH crosslinking efficiency (intradimer) [4]: 46%
Molecule: His6-Sgt2-G258C, not crosslinked (from UniProt Q12118 1-346) (natural protein)

- koff, slow phase (~50% of the fluorescence change) [5]: 0.0005 s⁻¹
Molecule: Bos1^BFL (BFL-labeled Bos1)

- koff [6]: 0.000283 to 0.000317 s⁻¹
- koff [7]: 0.0003 s⁻¹
- apparent rate constant of Bos1 release from Sgt2 with 30 µM CaM [8]: 0.91 min⁻¹
- koff [8]: 0.0003 s⁻¹
Molecule: Bos1^CM (Strep-SUMO-Bos1 labelled with coumarin)

- equilibrium of Sgt2 closing (K closing; µs-ALEX smFRET of doubly labelled Sgt2^ATTO550/ATTO647N, mpH2MM) in the purified Sgt2-TA complex; apo-Sgt2 0.221 [9]: 0.597
Molecule: SEQTITSINKRVFKDKLVFWIALILLIIGIYYVLKWLR (modifications not checked) [Strep-SUMO-Bos1 (model TA substrate Bos1), unlabelled]

- percent of Bos1^Bpa crosslinked [10]: > 43%
- binding result (Ssa1 (tagless)): binds
B1: His6-Sgt2 (wildtype Sgt2) (natural protein, UniProt Q12118 1-346, looked up)
chain: MSASKEEIAALIVNYFSSIVEKKEISEDGADSLNVAMDCISEAFGFEREAVSGILGKSEFKGQHLADILNSASRVPESNKKDDAENVEINIPEDDAETKAKAEDLKMQGNKAMANKDYELAINKYTEAIKVLPTNAIYYANRAAAHSSLKEYDQAVKDAESAISIDPSYFRGYSRLGFAKYAQGKPEEALEAYKKVLDIEGDNATEAMKRDYESAKKKVEQSLNLEKTVPEQSRDADVDASQGASAGGLPDLGSLLGGGLGGLMNNPQLMQAAQKMMSNPGAMQNIQKMMQDPSIRQMAEGFASGGGTPNLSDLMNNPALRNMAGNLFGGAGAQSTDETPDNENKQ
notes: Sgt2, cochaperone of the GET pathway; The functional rows were measured with Sgt2 doubly labelled with ATTO550/ATTO647N at the C-terminus (His6-Sgt2-LPATGG ligated to GGGC-dye by sortase A); also called Sgt2-WT; unlabeled Sgt2; source: cells lysed with BugBuster

- binding result (Ssa1): binds
B2: His6-tagged wildtype Sgt2 (natural protein, S. cerevisiae (printed as ScSgt2), UniProt Q12118 1-346, looked up)
chain: MSASKEEIAALIVNYFSSIVEKKEISEDGADSLNVAMDCISEAFGFEREAVSGILGKSEFKGQHLADILNSASRVPESNKKDDAENVEINIPEDDAETKAKAEDLKMQGNKAMANKDYELAINKYTEAIKVLPTNAIYYANRAAAHSSLKEYDQAVKDAESAISIDPSYFRGYSRLGFAKYAQGKPEEALEAYKKVLDIEGDNATEAMKRDYESAKKKVEQSLNLEKTVPEQSRDADVDASQGASAGGLPDLGSLLGGGLGGLMNNPQLMQAAQKMMSNPGAMQNIQKMMQDPSIRQMAEGFASGGGTPNLSDLMNNPALRNMAGNLFGGAGAQSTDETPDNENKQ
notes: Sgt2 (ScSgt2); also called His6-Sgt2; His-Sgt2-WT

- percent of Bos1^Bpa crosslinked [10]: 6%
B3: His6-Sgt2ΔN (residues 96–346) (domain or fragment)
chain: AETKAKAEDLKMQGNKAMANKDYELAINKYTEAIKVLPTNAIYYANRAAAHSSLKEYDQAVKDAESAISIDPSYFRGYSRLGFAKYAQGKPEEALEAYKKVLDIEGDNATEAMKRDYESAKKKVEQSLNLEKTVPEQSRDADVDASQGASAGGLPDLGSLLGGGLGGLMNNPQLMQAAQKMMSNPGAMQNIQKMMQDPSIRQMAEGFASGGGTPNLSDLMNNPALRNMAGNLFGGAGAQSTDETPDNENKQ
